Publication PMC5499601 (Nucleic Acids Research, 2017)

Tests used:
Test in all cases: EMSA
BsSpo0J Q61R = molecular target: T1, BsSpo0J Q61R (UniProt P26497 1-282, Q61R)
T1 sequence: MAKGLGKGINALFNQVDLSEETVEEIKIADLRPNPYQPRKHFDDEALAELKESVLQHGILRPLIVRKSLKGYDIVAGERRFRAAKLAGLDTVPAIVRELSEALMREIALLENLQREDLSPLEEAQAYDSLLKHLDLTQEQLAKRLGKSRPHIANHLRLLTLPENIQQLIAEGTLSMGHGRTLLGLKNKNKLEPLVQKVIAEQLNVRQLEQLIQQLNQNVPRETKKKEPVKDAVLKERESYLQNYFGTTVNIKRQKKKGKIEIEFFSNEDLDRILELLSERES

BsSpo0J V75A = molecular target: T2, BsSpo0J V75A (UniProt P26497 1-282, V75A)
T2 sequence: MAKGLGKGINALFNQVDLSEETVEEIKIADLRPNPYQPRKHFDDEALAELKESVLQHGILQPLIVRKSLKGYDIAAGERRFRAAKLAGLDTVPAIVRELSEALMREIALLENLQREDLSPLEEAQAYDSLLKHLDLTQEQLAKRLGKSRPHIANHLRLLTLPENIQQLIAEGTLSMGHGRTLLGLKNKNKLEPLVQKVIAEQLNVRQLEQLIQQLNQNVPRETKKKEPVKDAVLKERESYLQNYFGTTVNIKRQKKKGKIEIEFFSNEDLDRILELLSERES

BsSpo0J Q140R = molecular target: T3, BsSpo0J Q140R (UniProt P26497 1-282, Q140R)
T3 sequence: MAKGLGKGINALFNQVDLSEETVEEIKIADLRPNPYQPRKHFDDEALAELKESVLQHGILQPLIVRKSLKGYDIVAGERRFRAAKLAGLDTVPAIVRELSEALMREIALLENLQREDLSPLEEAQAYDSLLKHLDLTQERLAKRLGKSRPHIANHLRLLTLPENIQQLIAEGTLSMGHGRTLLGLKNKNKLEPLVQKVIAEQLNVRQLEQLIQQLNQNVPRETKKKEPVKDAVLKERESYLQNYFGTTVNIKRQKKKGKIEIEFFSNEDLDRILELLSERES

BsSpo0J R79A = molecular target: T4, BsSpo0J R79A (UniProt P26497 1-282, R79A)
T4 sequence: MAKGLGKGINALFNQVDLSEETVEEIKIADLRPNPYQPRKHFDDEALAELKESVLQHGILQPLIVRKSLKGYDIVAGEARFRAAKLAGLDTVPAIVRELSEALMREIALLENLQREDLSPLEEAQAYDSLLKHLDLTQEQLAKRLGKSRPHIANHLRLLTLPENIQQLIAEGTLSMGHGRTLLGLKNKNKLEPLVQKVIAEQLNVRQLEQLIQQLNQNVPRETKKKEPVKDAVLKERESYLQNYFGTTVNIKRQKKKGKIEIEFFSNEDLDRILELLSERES

BsSpo0J R82A = molecular target: T5, BsSpo0J R82A (UniProt P26497 1-282, R82A)
T5 sequence: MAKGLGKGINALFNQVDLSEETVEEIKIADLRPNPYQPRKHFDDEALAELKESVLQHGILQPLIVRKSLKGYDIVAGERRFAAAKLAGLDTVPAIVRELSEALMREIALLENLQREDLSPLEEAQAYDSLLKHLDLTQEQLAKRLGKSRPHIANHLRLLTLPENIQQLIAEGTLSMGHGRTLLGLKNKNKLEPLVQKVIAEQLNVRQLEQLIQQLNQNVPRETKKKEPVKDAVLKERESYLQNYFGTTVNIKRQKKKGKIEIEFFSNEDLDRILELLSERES

BsSpo0J M104A = molecular target: T6, BsSpo0J M104A (UniProt P26497 1-282, M104A)
T6 sequence: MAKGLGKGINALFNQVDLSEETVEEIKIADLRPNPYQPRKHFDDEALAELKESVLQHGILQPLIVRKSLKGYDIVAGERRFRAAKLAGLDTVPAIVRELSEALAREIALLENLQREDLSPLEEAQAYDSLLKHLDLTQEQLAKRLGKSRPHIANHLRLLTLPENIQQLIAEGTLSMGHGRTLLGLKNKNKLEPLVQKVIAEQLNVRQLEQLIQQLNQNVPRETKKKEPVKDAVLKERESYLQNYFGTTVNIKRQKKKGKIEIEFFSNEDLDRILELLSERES

BsSpo0J Q61A = molecular target: T7, BsSpo0J Q61A (UniProt P26497 1-282, Q61A)
T7 sequence: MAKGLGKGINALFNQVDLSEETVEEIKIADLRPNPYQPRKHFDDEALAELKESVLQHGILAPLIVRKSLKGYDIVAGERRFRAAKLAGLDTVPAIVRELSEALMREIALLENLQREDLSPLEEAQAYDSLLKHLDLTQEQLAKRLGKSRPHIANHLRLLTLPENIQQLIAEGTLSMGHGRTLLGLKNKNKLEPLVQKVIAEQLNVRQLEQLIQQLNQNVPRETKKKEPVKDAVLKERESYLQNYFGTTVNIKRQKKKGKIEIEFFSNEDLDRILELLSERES

BsSpo0J N112S = molecular target: T8, BsSpo0J N112S (UniProt P26497 1-282, N112S)
T8 sequence: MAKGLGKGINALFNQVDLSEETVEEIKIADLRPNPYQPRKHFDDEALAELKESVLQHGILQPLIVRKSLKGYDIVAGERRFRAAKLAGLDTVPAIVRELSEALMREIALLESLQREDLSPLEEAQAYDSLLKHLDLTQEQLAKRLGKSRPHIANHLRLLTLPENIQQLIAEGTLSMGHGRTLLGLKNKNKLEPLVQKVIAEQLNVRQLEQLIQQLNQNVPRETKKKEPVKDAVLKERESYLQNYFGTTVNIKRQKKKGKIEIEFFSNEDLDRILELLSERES

BsSpo0J L60E = molecular target: T9, BsSpo0J L60E (UniProt P26497 1-282, L60E)
T9 sequence: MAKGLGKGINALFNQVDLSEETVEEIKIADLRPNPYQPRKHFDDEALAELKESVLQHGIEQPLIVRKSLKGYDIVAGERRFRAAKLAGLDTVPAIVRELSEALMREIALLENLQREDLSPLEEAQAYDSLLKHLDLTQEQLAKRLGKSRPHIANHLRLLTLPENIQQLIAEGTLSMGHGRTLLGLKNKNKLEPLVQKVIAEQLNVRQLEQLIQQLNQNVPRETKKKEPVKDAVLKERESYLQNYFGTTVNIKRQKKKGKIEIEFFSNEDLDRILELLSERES

Measured: binding result

B1: 39-bp parS (dsDNA)
DNA 1: CAGTTGAATCAGAATGTTCCACGTGAAACAAAGAAAAAA
DNA 2: TTTTTTCTTTGTTTCACGTGGAACATTCTGATTCAACTG
binds: all assays above
